Measured values as given in patent US20240189392A1.

How the values were obtained:
Assay in all cases: cell-based or functional assay
[1] = molecular target: human RXFP2 (human) (UniProt Q8WXD0)
[2] = molecular target: human RXFP3 (human) (UniProt Q9NSD7)
[3] = molecular target: human RXFP4 (human) (UniProt Q8TDU9)
Sequence of human RXFP4 (human) (Q8TDU9 whole entry): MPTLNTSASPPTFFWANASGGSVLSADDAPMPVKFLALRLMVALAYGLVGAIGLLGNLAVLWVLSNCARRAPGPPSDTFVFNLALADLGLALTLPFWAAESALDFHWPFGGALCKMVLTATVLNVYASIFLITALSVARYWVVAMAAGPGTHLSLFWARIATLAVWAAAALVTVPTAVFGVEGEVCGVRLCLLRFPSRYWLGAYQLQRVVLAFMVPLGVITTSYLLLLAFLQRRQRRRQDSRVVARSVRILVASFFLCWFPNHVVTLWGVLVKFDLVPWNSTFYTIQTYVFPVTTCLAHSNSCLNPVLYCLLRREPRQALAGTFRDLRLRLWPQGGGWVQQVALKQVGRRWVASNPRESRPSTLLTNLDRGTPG

Sequence of human RXFP3 (human) (Q9NSD7 whole entry): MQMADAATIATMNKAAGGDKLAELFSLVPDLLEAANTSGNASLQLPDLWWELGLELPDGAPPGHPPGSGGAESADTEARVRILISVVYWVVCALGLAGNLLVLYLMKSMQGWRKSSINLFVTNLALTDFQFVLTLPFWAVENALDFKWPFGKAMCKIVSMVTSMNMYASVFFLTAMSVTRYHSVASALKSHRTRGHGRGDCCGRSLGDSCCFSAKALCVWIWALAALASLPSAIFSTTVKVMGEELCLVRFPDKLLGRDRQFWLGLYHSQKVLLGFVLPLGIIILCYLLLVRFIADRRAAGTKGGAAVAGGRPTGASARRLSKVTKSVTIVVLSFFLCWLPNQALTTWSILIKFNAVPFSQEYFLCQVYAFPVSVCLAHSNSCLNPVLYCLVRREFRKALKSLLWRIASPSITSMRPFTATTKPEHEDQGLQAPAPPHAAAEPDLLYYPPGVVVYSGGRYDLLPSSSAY
Sequence of human RXFP2 (human) (Q8WXD0 whole entry): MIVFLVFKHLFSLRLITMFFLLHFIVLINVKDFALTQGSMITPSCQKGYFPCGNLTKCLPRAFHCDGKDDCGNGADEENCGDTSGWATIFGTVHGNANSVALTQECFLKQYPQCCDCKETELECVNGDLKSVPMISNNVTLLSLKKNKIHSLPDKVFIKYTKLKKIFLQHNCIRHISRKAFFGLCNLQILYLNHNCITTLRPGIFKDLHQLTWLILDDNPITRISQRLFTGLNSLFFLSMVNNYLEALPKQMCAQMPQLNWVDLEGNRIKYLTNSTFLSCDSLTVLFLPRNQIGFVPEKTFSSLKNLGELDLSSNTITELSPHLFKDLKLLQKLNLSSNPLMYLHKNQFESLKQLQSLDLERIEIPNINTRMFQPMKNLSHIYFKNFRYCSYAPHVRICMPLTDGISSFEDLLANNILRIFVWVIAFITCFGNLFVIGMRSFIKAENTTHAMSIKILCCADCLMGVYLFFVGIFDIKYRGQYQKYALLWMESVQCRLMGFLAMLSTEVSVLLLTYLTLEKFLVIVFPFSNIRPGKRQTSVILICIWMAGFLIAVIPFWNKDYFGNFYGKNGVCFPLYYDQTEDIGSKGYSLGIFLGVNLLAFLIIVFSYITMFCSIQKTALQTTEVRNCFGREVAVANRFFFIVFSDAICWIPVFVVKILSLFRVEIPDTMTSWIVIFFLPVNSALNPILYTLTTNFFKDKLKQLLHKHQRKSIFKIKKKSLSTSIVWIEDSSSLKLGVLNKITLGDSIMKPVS

Row | cAMP Assay EC50 (nM), human RXFP2/CHO-K1 cells [1] | cAMP Assay EC50 (nM), inhibition of forskolin-induced cAMP, human RXFP3/CHO-K1 cells [2] | cAMP Assay EC50 (nM), inhibition of forskolin-induced cAMP, human RXFP4/CHO-K1 cells [3] | maximal inhibition of forskolin-induced cAMP, human RXFP4/CHO-K1 cells [3] | Substance
1 | 0.46 nM |  |  |  | insulin like 3 protein (INSL3) (from UniProt P51460 21-131) (ligand)
2 |  | 0.6 nM | 2.8 nM | 40% | recombinant human relaxin 3 (H3-RLX) (from UniProt Q8WXF3 26-142) (ligand)
